In article PMC13079258, “Impact of Ser81 phosphorylation on alanine: glyoxylate aminotransferase associated with Primary hyperoxaluria type I” (Molecular Biomedicine, 2026):

T1: AGT (alanine:glyoxylate aminotransferase 1), AGT WT (Homo sapiens, UniProt P21549)
T1 construct: gene AGXT; apo-form prepared with L-alanine; dimer
T1 sequence (P21549 1-392): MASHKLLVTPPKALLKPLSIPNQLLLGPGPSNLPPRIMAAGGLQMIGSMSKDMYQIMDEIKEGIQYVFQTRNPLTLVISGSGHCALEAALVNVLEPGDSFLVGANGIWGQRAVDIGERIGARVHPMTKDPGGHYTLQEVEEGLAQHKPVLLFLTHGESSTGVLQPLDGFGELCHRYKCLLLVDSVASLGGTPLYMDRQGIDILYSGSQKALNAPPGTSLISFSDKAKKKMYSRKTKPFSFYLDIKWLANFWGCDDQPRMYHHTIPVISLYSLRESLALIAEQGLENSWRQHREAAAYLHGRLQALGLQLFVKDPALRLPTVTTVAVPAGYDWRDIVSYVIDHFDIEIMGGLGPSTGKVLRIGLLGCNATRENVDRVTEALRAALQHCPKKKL


The molecules below were run against T1, AGT (alanine:glyoxylate aminotransferase 1), AGT WT (assay: absorption and near-UV/visible CD after L-alanine; 30-kDa filtration for released PMP). Details: 20 uM holo-AGT, 200 mM L-alanine, 25 C, HEPES 20 mM, NaCl 200 mM, pH 7.4.
Format: biochemical

Molecule	absorption and near-UV/visible CD after L-alanine; 30-kDa filtration for release
Cc1ncc(COP(=O)(O)O)c(CN)c1O [PMP]	the CD signal associated with PMP formation, clearly present in S81 and A81 sets

Biological target: the molecule itself
Test: dynamic light scattering; 10 µM AGT as purified, 25 °C, 20 mM HEPES (sodium salt), 200 mM NaCl, pH 7.4; hydrodynamic radius assuming spherical particles (Stokes-Einstein)
Details: not given

Molecule	stoichiometry N
Alanine:glyoxylate aminotransferase (AGT) WT (enzyme, human, UniProt P21549 1-392, looked up, also called wild-type; major allele) MASHKLLVTPPKALLKPLSIPNQLLLGPGPSNLPPRIMAAGGLQMIGSMSKDMYQIMDEIKEGIQYVFQTRNPLTLVISGSGHCALEAALVNVLEPGDSFLVGANGIWGQRAVDIGERIGARVHPMTKDPGGHYTLQEVEEGLAQHKPVLLFLTHGESSTGVLQPLDGFGELCHRYKCLLLVDSVASLGGTPLYMDRQGIDILYSGSQKALNAPPGTSLISFSDKAKKKMYSRKTKPFSFYLDIKWLANFWGCDDQPRMYHHTIPVISLYSLRESLALIAEQGLENSWRQHREAAAYLHGRLQALGLQLFVKDPALRLPTVTTVAVPAGYDWRDIVSYVIDHFDIEIMGGLGPSTGKVLRIGLLGCNATRENVDRVTEALRAALQHCPKKKL	2
AGT LM p.S81D (enzyme, human, UniProt P21549 1-392, looked up, Alanine:glyoxylate aminotransferase (AGT), human, minor allele (LM) background with the phosphomimetic S81D; site-directed mutant of the pCOLDII construct of m2; also called set D81) MASHKLLVTPLKALLKPLSIPNQLLLGPGPSNLPPRIMAAGGLQMIGSMSKDMYQIMDEIKEGIQYVFQTRNPLTLVISGDGHCALEAALVNVLEPGDSFLVGANGIWGQRAVDIGERIGARVHPMTKDPGGHYTLQEVEEGLAQHKPVLLFLTHGESSTGVLQPLDGFGELCHRYKCLLLVDSVASLGGTPLYMDRQGIDILYSGSQKALNAPPGTSLISFSDKAKKKMYSRKTKPFSFYLDIKWLANFWGCDDQPRMYHHTIPVISLYSLRESLALIAEQGLENSWRQHREAAAYLHGRLQALGLQLFVKDPALRLPTVTTVAVPAGYDWRDIVSYVMDHFDIEIMGGLGPSTGKVLRIGLLGCNATRENVDRVTEALRAALQHCPKKKL	2
AGT LM-p.G170R p.S81D (enzyme, human, UniProt P21549 1-392, looked up, Alanine:glyoxylate aminotransferase (AGT), human, LM-p.G170R background with the phosphomimetic S81D; site-directed mutant of the pCOLDII construct of m3; also called set D81) MASHKLLVTPLKALLKPLSIPNQLLLGPGPSNLPPRIMAAGGLQMIGSMSKDMYQIMDEIKEGIQYVFQTRNPLTLVISGDGHCALEAALVNVLEPGDSFLVGANGIWGQRAVDIGERIGARVHPMTKDPGGHYTLQEVEEGLAQHKPVLLFLTHGESSTGVLQPLDGFRELCHRYKCLLLVDSVASLGGTPLYMDRQGIDILYSGSQKALNAPPGTSLISFSDKAKKKMYSRKTKPFSFYLDIKWLANFWGCDDQPRMYHHTIPVISLYSLRESLALIAEQGLENSWRQHREAAAYLHGRLQALGLQLFVKDPALRLPTVTTVAVPAGYDWRDIVSYVMDHFDIEIMGGLGPSTGKVLRIGLLGCNATRENVDRVTEALRAALQHCPKKKL	2
AGT LM-p.I244T p.S81D (enzyme, human, UniProt P21549 1-392, looked up, Alanine:glyoxylate aminotransferase (AGT), human, LM-p.I244T background with the phosphomimetic S81D; site-directed mutant of the pCOLDII construct of m4; also called set D81) MASHKLLVTPLKALLKPLSIPNQLLLGPGPSNLPPRIMAAGGLQMIGSMSKDMYQIMDEIKEGIQYVFQTRNPLTLVISGDGHCALEAALVNVLEPGDSFLVGANGIWGQRAVDIGERIGARVHPMTKDPGGHYTLQEVEEGLAQHKPVLLFLTHGESSTGVLQPLDGFGELCHRYKCLLLVDSVASLGGTPLYMDRQGIDILYSGSQKALNAPPGTSLISFSDKAKKKMYSRKTKPFSFYLDTKWLANFWGCDDQPRMYHHTIPVISLYSLRESLALIAEQGLENSWRQHREAAAYLHGRLQALGLQLFVKDPALRLPTVTTVAVPAGYDWRDIVSYVMDHFDIEIMGGLGPSTGKVLRIGLLGCNATRENVDRVTEALRAALQHCPKKKL	2
AGT LM (minor allele, p.P11L and p.I340M) (enzyme, human, UniProt P21549 1-392, looked up, Alanine:glyoxylate aminotransferase (AGT), human, common polymorphic minor allele (LM); also called set S81) MASHKLLVTPLKALLKPLSIPNQLLLGPGPSNLPPRIMAAGGLQMIGSMSKDMYQIMDEIKEGIQYVFQTRNPLTLVISGSGHCALEAALVNVLEPGDSFLVGANGIWGQRAVDIGERIGARVHPMTKDPGGHYTLQEVEEGLAQHKPVLLFLTHGESSTGVLQPLDGFGELCHRYKCLLLVDSVASLGGTPLYMDRQGIDILYSGSQKALNAPPGTSLISFSDKAKKKMYSRKTKPFSFYLDIKWLANFWGCDDQPRMYHHTIPVISLYSLRESLALIAEQGLENSWRQHREAAAYLHGRLQALGLQLFVKDPALRLPTVTTVAVPAGYDWRDIVSYVMDHFDIEIMGGLGPSTGKVLRIGLLGCNATRENVDRVTEALRAALQHCPKKKL	2
AGT LM-p.G170R (enzyme, human, UniProt P21549 1-392, looked up, Alanine:glyoxylate aminotransferase (AGT), human, minor allele (LM) with the PH1-associated variant p.G170R; also called set S81) MASHKLLVTPLKALLKPLSIPNQLLLGPGPSNLPPRIMAAGGLQMIGSMSKDMYQIMDEIKEGIQYVFQTRNPLTLVISGSGHCALEAALVNVLEPGDSFLVGANGIWGQRAVDIGERIGARVHPMTKDPGGHYTLQEVEEGLAQHKPVLLFLTHGESSTGVLQPLDGFRELCHRYKCLLLVDSVASLGGTPLYMDRQGIDILYSGSQKALNAPPGTSLISFSDKAKKKMYSRKTKPFSFYLDIKWLANFWGCDDQPRMYHHTIPVISLYSLRESLALIAEQGLENSWRQHREAAAYLHGRLQALGLQLFVKDPALRLPTVTTVAVPAGYDWRDIVSYVMDHFDIEIMGGLGPSTGKVLRIGLLGCNATRENVDRVTEALRAALQHCPKKKL	2
AGT LM-p.I244T (enzyme, human, UniProt P21549 1-392, looked up, Alanine:glyoxylate aminotransferase (AGT), human, minor allele (LM) with the PH1-associated variant p.I244T; also called set S81) MASHKLLVTPLKALLKPLSIPNQLLLGPGPSNLPPRIMAAGGLQMIGSMSKDMYQIMDEIKEGIQYVFQTRNPLTLVISGSGHCALEAALVNVLEPGDSFLVGANGIWGQRAVDIGERIGARVHPMTKDPGGHYTLQEVEEGLAQHKPVLLFLTHGESSTGVLQPLDGFGELCHRYKCLLLVDSVASLGGTPLYMDRQGIDILYSGSQKALNAPPGTSLISFSDKAKKKMYSRKTKPFSFYLDTKWLANFWGCDDQPRMYHHTIPVISLYSLRESLALIAEQGLENSWRQHREAAAYLHGRLQALGLQLFVKDPALRLPTVTTVAVPAGYDWRDIVSYVMDHFDIEIMGGLGPSTGKVLRIGLLGCNATRENVDRVTEALRAALQHCPKKKL	2
AGT WT p.S81A (enzyme, human, UniProt P21549 1-392, looked up, Alanine:glyoxylate aminotransferase (AGT), human, wild-type background with S81A; site-directed mutant of the pCOLDII construct of m1; also called set A81) MASHKLLVTPPKALLKPLSIPNQLLLGPGPSNLPPRIMAAGGLQMIGSMSKDMYQIMDEIKEGIQYVFQTRNPLTLVISGAGHCALEAALVNVLEPGDSFLVGANGIWGQRAVDIGERIGARVHPMTKDPGGHYTLQEVEEGLAQHKPVLLFLTHGESSTGVLQPLDGFGELCHRYKCLLLVDSVASLGGTPLYMDRQGIDILYSGSQKALNAPPGTSLISFSDKAKKKMYSRKTKPFSFYLDIKWLANFWGCDDQPRMYHHTIPVISLYSLRESLALIAEQGLENSWRQHREAAAYLHGRLQALGLQLFVKDPALRLPTVTTVAVPAGYDWRDIVSYVIDHFDIEIMGGLGPSTGKVLRIGLLGCNATRENVDRVTEALRAALQHCPKKKL	2
AGT LM p.S81A (enzyme, human, UniProt P21549 1-392, looked up, Alanine:glyoxylate aminotransferase (AGT), human, minor allele (LM) background with S81A; site-directed mutant of the pCOLDII construct of m2; also called set A81) MASHKLLVTPLKALLKPLSIPNQLLLGPGPSNLPPRIMAAGGLQMIGSMSKDMYQIMDEIKEGIQYVFQTRNPLTLVISGAGHCALEAALVNVLEPGDSFLVGANGIWGQRAVDIGERIGARVHPMTKDPGGHYTLQEVEEGLAQHKPVLLFLTHGESSTGVLQPLDGFGELCHRYKCLLLVDSVASLGGTPLYMDRQGIDILYSGSQKALNAPPGTSLISFSDKAKKKMYSRKTKPFSFYLDIKWLANFWGCDDQPRMYHHTIPVISLYSLRESLALIAEQGLENSWRQHREAAAYLHGRLQALGLQLFVKDPALRLPTVTTVAVPAGYDWRDIVSYVMDHFDIEIMGGLGPSTGKVLRIGLLGCNATRENVDRVTEALRAALQHCPKKKL	2
AGT LM-p.G170R p.S81A (enzyme, human, UniProt P21549 1-392, looked up, Alanine:glyoxylate aminotransferase (AGT), human, LM-p.G170R background with S81A; site-directed mutant of the pCOLDII construct of m3; also called set A81) MASHKLLVTPLKALLKPLSIPNQLLLGPGPSNLPPRIMAAGGLQMIGSMSKDMYQIMDEIKEGIQYVFQTRNPLTLVISGAGHCALEAALVNVLEPGDSFLVGANGIWGQRAVDIGERIGARVHPMTKDPGGHYTLQEVEEGLAQHKPVLLFLTHGESSTGVLQPLDGFRELCHRYKCLLLVDSVASLGGTPLYMDRQGIDILYSGSQKALNAPPGTSLISFSDKAKKKMYSRKTKPFSFYLDIKWLANFWGCDDQPRMYHHTIPVISLYSLRESLALIAEQGLENSWRQHREAAAYLHGRLQALGLQLFVKDPALRLPTVTTVAVPAGYDWRDIVSYVMDHFDIEIMGGLGPSTGKVLRIGLLGCNATRENVDRVTEALRAALQHCPKKKL	2
AGT LM-p.I244T p.S81A (enzyme, human, UniProt P21549 1-392, looked up, Alanine:glyoxylate aminotransferase (AGT), human, LM-p.I244T background with S81A; site-directed mutant of the pCOLDII construct of m4; also called set A81) MASHKLLVTPLKALLKPLSIPNQLLLGPGPSNLPPRIMAAGGLQMIGSMSKDMYQIMDEIKEGIQYVFQTRNPLTLVISGAGHCALEAALVNVLEPGDSFLVGANGIWGQRAVDIGERIGARVHPMTKDPGGHYTLQEVEEGLAQHKPVLLFLTHGESSTGVLQPLDGFGELCHRYKCLLLVDSVASLGGTPLYMDRQGIDILYSGSQKALNAPPGTSLISFSDKAKKKMYSRKTKPFSFYLDTKWLANFWGCDDQPRMYHHTIPVISLYSLRESLALIAEQGLENSWRQHREAAAYLHGRLQALGLQLFVKDPALRLPTVTTVAVPAGYDWRDIVSYVMDHFDIEIMGGLGPSTGKVLRIGLLGCNATRENVDRVTEALRAALQHCPKKKL	2
AGT WT p.S81D (enzyme, human, UniProt P21549 1-392, looked up, Alanine:glyoxylate aminotransferase (AGT), human, wild-type background with the phosphomimetic S81D; site-directed mutant of the pCOLDII construct of m1; also called set D81) MASHKLLVTPPKALLKPLSIPNQLLLGPGPSNLPPRIMAAGGLQMIGSMSKDMYQIMDEIKEGIQYVFQTRNPLTLVISGDGHCALEAALVNVLEPGDSFLVGANGIWGQRAVDIGERIGARVHPMTKDPGGHYTLQEVEEGLAQHKPVLLFLTHGESSTGVLQPLDGFGELCHRYKCLLLVDSVASLGGTPLYMDRQGIDILYSGSQKALNAPPGTSLISFSDKAKKKMYSRKTKPFSFYLDIKWLANFWGCDDQPRMYHHTIPVISLYSLRESLALIAEQGLENSWRQHREAAAYLHGRLQALGLQLFVKDPALRLPTVTTVAVPAGYDWRDIVSYVIDHFDIEIMGGLGPSTGKVLRIGLLGCNATRENVDRVTEALRAALQHCPKKKL	2
